Where “and” joins values, the source holds several entries; their conditions need not be identical. Equal values may be shown once. Read-outs that look alike come from different tables or passages of the source.
Legend:
N9 [1] = assay: Bio-Layer Interferometry (BLI); printed as kdis
N2 [2] = assay: Bio-Layer Interferometry (BLI); printed as kdis
N1 [3] = assay: Bio-Layer Interferometry (BLI); printed as kdis
N9 [4] = assay: Bio-Layer Interferometry (BLI)
N2 [5] = assay: Bio-Layer Interferometry (BLI)
N1 [6] = assay: Bio-Layer Interferometry (BLI)
[7] = target: B/MALAYSIA/3120318925/2013 (YAMAGATA) (Influenza B virus); assay: flow cytometry, NA transiently expressed on Expi-CHO cells
[8] = target: IBV neuraminidase from B/Lee/10/1940 (Ancestral) (Influenza B virus B/Lee/10/1940) (UniProt P03474); assay: as above
[9] = target: B/WISCONSIN/1/2010 (YAMAGATA) (Influenza B virus); assay: as above
[10] = target: N2 neuraminidase from A/Leningrad/134/17/57 (Influenza A virus A/Leningrad/134/17/57) (UniProt Q67214); assay: as above
[11] = target: N9 neuraminidase from A/Anhui/1/2013 (Influenza A virus A/Anhui/1/2013 (H7N9)); assay: as above
[12] = target: N4 A/MALLARD DUCK/…/30/2011 (Influenza A virus); assay: as above
[13] = target: N8 A/HARBOR SEAL/NEW …/179629/2011 (Influenza A virus); assay: as above
[14] = target: IBV neuraminidase from B/Yamanashi/166/1998 (Yamagata) (Influenza B virus B/Yamanashi/166/1998); assay: as above
[15] = target: IBV neuraminidase from B/Malaysia/2506/2004 (Victoria) (Influenza B virus B/Malaysia/2506/2004); assay: as above
[16] = target: N3 neuraminidase from A/Canada/rv504/2004 (Influenza A virus A/Canada/rv504/2004); assay: as above
[17] = target: N6 neuraminidase from A/swine/Ontario/01911/1/99 (Influenza A virus A/swine/Ontario/01911/1/99); assay: as above
[18] = target: N1 neuraminidase from A/Stockholm/18/2007 (Influenza A virus A/Stockholm/18/2007); assay: as above
[19] = target: N7 neuraminidase from A/Netherlands/078/03 (Influenza A virus A/Netherlands/078/03); assay: as above
[20] = target: N2 A/HONG KONG/68 (Influenza A virus); assay: as above
[21] = target: N5 A/AQUATIC BIRD/KOREA/CN5/2009 (Influenza A virus); assay: as above
[22] = target: N2 neuraminidase from A/Washington/01/2007 (Influenza A virus A/Washington/01/2007); assay: as above
[23] = target: N1 neuraminidase from A/Swine/Jiangsu/J004/2018 (Influenza A virus A/Swine/Jiangsu/J004/2018 (H1N1)); assay: flow cytometry, cells infected with A/Swine/Jiangsu/J004/2018, antibody 50 µg/ml
[24] = target: N2 neuraminidase from A/South Australia/34/2019 (Influenza A virus A/South Australia/34/2019)
[25] = target: N2 neuraminidase from A/South Australia/34/2019 (Influenza A virus A/South Australia/34/2019); remark: listed apart in the source
NA-9 = assay: BLI, antibody loaded on the sensor (Loading Sample ID: FNI9), NA-9 as sample
[26] = target: N1 neuraminidase from A/Swine/Jiangsu/J004/2018 (Influenza A virus A/Swine/Jiangsu/J004/2018 (H1N1)); assay: flow cytometry, cells infected with A/Swine/Jiangsu/J004/2018, antibody 10 µg/ml
[27] = target: N1 neuraminidase from A/Swine/Jiangsu/J004/2018 (Influenza A virus A/Swine/Jiangsu/J004/2018 (H1N1))
[28] = target: N1 neuraminidase from A/Swine/Jiangsu/J004/2018 (Influenza A virus A/Swine/Jiangsu/J004/2018 (H1N1)); remark: listed apart in the source
[29] = target: N1 neuraminidase from A/Swine/Jiangsu/J004/2018 (Influenza A virus A/Swine/Jiangsu/J004/2018 (H1N1)); assay: flow cytometry, cells infected with A/Swine/Jiangsu/J004/2018, antibody 2 µg/ml
N9 NA (FIGS. 96A-96C) = assay: Bio-Layer Interferometry (BLI)
[30] = target: N1 neuraminidase from A/Swine/Jiangsu/J004/2018 (Influenza A virus A/Swine/Jiangsu/J004/2018 (H1N1)); remark: listed apart in the source
[31] = target: B/BRISBANE/60/2008 (VICTORIA) (Influenza B virus); assay: flow cytometry, NA transiently expressed on Expi-CHO cells
human FcRn (human) [32] = target: human FcRn (human) (UniProt P55899); assay: MSD, pH 6 [cont'd]
Chain of human FcRn (human) (P55899 24-297 limits assumed, chain 1 of 2): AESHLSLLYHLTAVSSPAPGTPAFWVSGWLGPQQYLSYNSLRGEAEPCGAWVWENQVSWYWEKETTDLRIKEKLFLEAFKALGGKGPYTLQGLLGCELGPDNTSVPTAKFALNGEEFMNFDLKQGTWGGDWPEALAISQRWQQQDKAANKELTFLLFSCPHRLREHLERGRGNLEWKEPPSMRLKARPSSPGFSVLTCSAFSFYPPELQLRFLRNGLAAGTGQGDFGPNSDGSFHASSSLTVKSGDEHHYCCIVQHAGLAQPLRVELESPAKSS
Chain of human FcRn (human) (chain, as listed by the source limits assumed, chain 2 of 2): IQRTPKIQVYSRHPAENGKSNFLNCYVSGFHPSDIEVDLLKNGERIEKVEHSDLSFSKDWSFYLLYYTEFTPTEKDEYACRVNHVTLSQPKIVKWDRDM

human FcγRIIb (human) [33] = target: human FcγRIIb (human) (UniProt P31994)
Chain of human FcγRIIb (human) (P31994 43-217 limits assumed): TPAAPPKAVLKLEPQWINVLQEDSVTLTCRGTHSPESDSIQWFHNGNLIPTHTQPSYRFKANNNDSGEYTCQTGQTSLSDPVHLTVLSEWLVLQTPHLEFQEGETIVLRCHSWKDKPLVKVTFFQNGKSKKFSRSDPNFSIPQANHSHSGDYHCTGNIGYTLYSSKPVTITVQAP

[34] = target: human FcγRIIIa (F158 allele) (human) (UniProt P08637)
Chain of human FcγRIIIa (F158 allele) (human) (P08637 17-208 limits assumed): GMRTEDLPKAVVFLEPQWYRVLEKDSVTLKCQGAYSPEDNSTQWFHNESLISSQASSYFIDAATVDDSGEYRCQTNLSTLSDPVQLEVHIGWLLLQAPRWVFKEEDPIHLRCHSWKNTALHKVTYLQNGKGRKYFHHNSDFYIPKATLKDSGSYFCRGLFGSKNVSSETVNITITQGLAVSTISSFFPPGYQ

[35] = target: human FcγRIIIa (V158 allele) (human) (UniProt P08637)
Chain of human FcγRIIIa (V158 allele) (human) (P08637 17-208 F176V limits assumed): as the sequence (P08637 17-208 limits assumed) above, with F160V counted along it

[36] = target: human FcγRIIa (H131 allele) (human) (UniProt P12318)
Chain of human FcγRIIa (H131 allele) (human) (P12318 34-218 limits assumed): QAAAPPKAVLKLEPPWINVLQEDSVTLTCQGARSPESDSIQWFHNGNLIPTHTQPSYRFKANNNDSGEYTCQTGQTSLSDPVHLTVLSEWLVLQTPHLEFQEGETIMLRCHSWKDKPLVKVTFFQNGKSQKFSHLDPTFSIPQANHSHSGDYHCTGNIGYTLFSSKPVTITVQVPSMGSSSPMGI

human FcγRIIb (human) [37] = target: human FcγRIIb (human) (UniProt P31994); assay: MSD
[38] = target: human FcγRIIIa (F158 allele) (human) (UniProt P08637); assay: MSD
[39] = target: human FcγRIIa (R131 allele) (human) (UniProt P12318); assay: MSD
Chain of human FcγRIIa (R131 allele) (human) (P12318 34-218 H167R limits assumed): as the sequence (P12318 34-218 limits assumed) above, with H134R counted along it

[40] = target: human FcγRIIIa (V158 allele) (human) (UniProt P08637); assay: MSD
[41] = target: human FcγRIIa (H131 allele) (human) (UniProt P12318); assay: MSD
human FcγRIIIb (human) [42] = target: human FcγRIIIb (human) (UniProt O75015); assay: MSD
Chain of human FcγRIIIb (human) (O75015 17-200 limits assumed): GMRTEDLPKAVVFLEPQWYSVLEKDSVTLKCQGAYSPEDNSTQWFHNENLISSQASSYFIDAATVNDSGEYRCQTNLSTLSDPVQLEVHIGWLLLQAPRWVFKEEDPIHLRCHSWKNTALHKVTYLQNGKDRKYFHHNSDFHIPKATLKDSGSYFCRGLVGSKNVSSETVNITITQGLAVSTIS

human FcRn (human) [43] = target: human FcRn (human) (UniProt P55899); assay: MSD
human C1q (human) [44] = target: human C1q (human) (UniProt P02745); assay: MSD
Chain of human C1q (human) (P02745 23-245 limits assumed, chain 1 of 3): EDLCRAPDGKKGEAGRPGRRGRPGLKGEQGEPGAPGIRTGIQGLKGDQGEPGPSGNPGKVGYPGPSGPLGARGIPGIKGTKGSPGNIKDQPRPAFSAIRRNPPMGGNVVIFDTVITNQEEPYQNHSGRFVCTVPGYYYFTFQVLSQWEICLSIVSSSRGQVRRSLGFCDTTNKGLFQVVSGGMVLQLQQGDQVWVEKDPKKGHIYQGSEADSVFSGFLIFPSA
Chain of human C1q (human) (P02746 28-253 limits assumed, chain 2 of 3, further chain): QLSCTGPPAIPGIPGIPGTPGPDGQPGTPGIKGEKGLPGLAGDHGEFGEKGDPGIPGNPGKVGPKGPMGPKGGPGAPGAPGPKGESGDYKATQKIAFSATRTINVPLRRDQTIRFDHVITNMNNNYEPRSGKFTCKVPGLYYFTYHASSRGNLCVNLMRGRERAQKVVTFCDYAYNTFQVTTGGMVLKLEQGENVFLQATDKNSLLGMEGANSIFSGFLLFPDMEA
Chain of human C1q (human) (P02747 29-245 limits assumed, chain 3 of 3, further chain): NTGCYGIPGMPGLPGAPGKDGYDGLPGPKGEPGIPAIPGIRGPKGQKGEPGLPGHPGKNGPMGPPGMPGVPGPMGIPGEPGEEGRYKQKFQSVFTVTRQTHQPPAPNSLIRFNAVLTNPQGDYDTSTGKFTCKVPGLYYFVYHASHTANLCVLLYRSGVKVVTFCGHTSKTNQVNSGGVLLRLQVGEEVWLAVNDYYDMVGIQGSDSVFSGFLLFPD

[45] = target: human FcγRIIa (R131 allele) (human) (UniProt P12318); assay: Table B summary, vs fucosylated wild-type human IgG1
[46] = target: human FcγRIIa (H131 allele) (human) (UniProt P12318); assay: as above
human FcγRIIb (human) [47] = target: human FcγRIIb (human) (UniProt P31994); assay: MSD [cont'd]
[48] = target: human FcγRIIIa (F158 allele) (human) (UniProt P08637); assay: MSD [cont'd]
[49] = target: human FcγRIIa (R131 allele) (human) (UniProt P12318); assay: MSD [cont'd]
[50] = target: human FcγRIIIa (V158 allele) (human) (UniProt P08637); assay: MSD [cont'd]
[51] = target: human FcγRIIa (H131 allele) (human) (UniProt P12318); assay: MSD [cont'd]
human FcγRIIIb (human) [52] = target: human FcγRIIIb (human) (UniProt O75015); assay: MSD [cont'd]
human FcRn (human) [53] = target: human FcRn (human) (UniProt P55899); assay: MSD [cont'd]
human C1q (human) [54] = target: human C1q (human) (UniProt P02745); assay: MSD [cont'd]

1G01 (antibody)
koff (N9 [1]): < 1e-07 s⁻¹
koff (N2 [2]): < 1e-07 s⁻¹
koff (N1 [3]): 4.79e-05 s⁻¹
Kd (N9 [4]): < 0.001 nM
kon (N9 [4]): 106000 M⁻¹ s⁻¹
Kd (N2 [5]): < 0.001 nM
kon (N2 [5]): 40200 M⁻¹ s⁻¹
Kd (N1 [6]): 0.868 nM
kon (N1 [6]): 55100 M⁻¹ s⁻¹
lowest concentration at which binding was observed (EC50 scale class) [7]: 10 µg/mL
lowest concentration at which binding was observed (EC50 scale class) [8]: 10 µg/mL
lowest concentration at which binding was observed (EC50 scale class) [9]: 2 µg/mL
lowest concentration at which binding was observed (EC50 scale class) [10]: 0.4 µg/mL
lowest concentration at which binding was observed (EC50 scale class) [11]: 0.4 µg/mL
lowest concentration at which binding was observed (EC50 scale class) [12]: 0.4 µg/mL
lowest concentration at which binding was observed (EC50 scale class) [13]: 0.4 µg/mL
lowest concentration at which binding was observed (EC50 scale class) [14]: 2 µg/mL
lowest concentration at which binding was observed (EC50 scale class) [15]: 0.4 µg/mL
lowest concentration at which binding was observed (EC50 scale class) [16]: 0.4 µg/mL
lowest concentration at which binding was observed (EC50 scale class) [17]: 0.4 µg/mL
lowest concentration at which binding was observed (EC50 scale class) [18]: 0.4 µg/mL
lowest concentration at which binding was observed (EC50 scale class) [19]: 0.4 µg/mL
lowest concentration at which binding was observed (EC50 scale class) [20]: 0.4 µg/mL
lowest concentration at which binding was observed (EC50 scale class) [21]: 2 µg/mL
lowest concentration at which binding was observed (EC50 scale class) [22]: 0.4 µg/mL

FNI9 (antibody)
% of cells in the Alexa 647-A positive gate [23]: 84%
% Alexa 647-A+ cells [24]: 57% and 68.8%
% Alexa 647-A+ cells [25]: 66.1% and 71.3%
Kd (NA-9): 0.088 nM
% of cells in the Alexa 647-A positive gate [26]: 83.5%
% of cells in the Alexa 647-A positive gate [27]: 78%
% Alexa 647-A+ cells [28]: 84% and 83.5%
% of cells in the Alexa 647-A positive gate [29]: 82.1%
Kd (N9 [4]): < 0.001 nM
Kd (N9 NA (FIGS. 96A-96C)): < 0.001 nM
Kd (N2 [5]): < 0.001 nM
Kd (N1 [6]): 0.0164 nM
% Alexa 647-A+ cells [30]: 82.1% and 78%
lowest concentration at which binding was observed (EC50 scale class) [7]: 0.4 µg/mL
lowest concentration at which binding was observed (EC50 scale class) [9]: 0.4 µg/mL
lowest concentration at which binding was observed (EC50 scale class) [11]: 0.4 µg/mL
lowest concentration at which binding was observed (EC50 scale class) [12]: 0.4 µg/mL
lowest concentration at which binding was observed (EC50 scale class) [13]: 50 µg/mL
lowest concentration at which binding was observed (EC50 scale class) [14]: 0.4 µg/mL
lowest concentration at which binding was observed (EC50 scale class) [31]: 0.4 µg/mL
lowest concentration at which binding was observed (EC50 scale class) [15]: 0.4 µg/mL
lowest concentration at which binding was observed (EC50 scale class) [16]: 0.4 µg/mL
lowest concentration at which binding was observed (EC50 scale class) [17]: 0.4 µg/mL
lowest concentration at which binding was observed (EC50 scale class) [18]: 0.4 µg/mL
lowest concentration at which binding was observed (EC50 scale class) [19]: 50 µg/mL
lowest concentration at which binding was observed (EC50 scale class) [20]: 0.4 µg/mL

IgG1 antibody with Fc variant G236A_R292P_Y300L
fold-change to WT Fc (human FcRn (human) [32]): 0.828 fold
FcγR reporter signaling, fold-change vs wt [cont'd] (human FcγRIIb (human) [33]): 1.01 fold
FcγR reporter signaling, fold-change vs wt [cont'd] [34]: 6.15 fold
FcγR reporter signaling, fold-change vs wt [cont'd] [35]: 2.83 fold
FcγR reporter signaling, fold-change vs wt [cont'd] [36]: 1.87 fold
fold-change to WT Fc (human FcγRIIb (human) [37]): 0.94 fold
fold-change vs FY1 rIgG1m3 (human FcγRIIb (human) [37]): 0.9 fold
fold-change vs FY1 rIgG1m3 [38]: 3.7 fold
fold-change to WT Fc [39]: 2.71 fold
fold-change vs FY1 rIgG1m3 [39]: 2.7 fold
fold-change vs FY1 rIgG1m3 [40]: 2.7 fold
fold-change to WT Fc [41]: 14.2 fold
fold-change vs FY1 rIgG1m3 [41]: 14.2 fold
fold-change vs FY1 rIgG1m3 (human FcγRIIIb (human) [42]): 1.03 fold
fold-change vs FY1 rIgG1m3 (human FcRn (human) [43]): 0.8 fold
fold-change vs FY1 rIgG1m3 (human C1q (human) [44]): 1.01 fold
fold-change in binding vs fucosylated wild-type human IgG1 [45]: 2.7 fold
fold-change in binding vs fucosylated wild-type human IgG1 [46]: 14 fold
fold-change vs wt (human FcγRIIb (human) [47]): 0.94 fold
fold-change to WT Fc [48]: 3.71 fold
fold-change vs wt [48]: 3.71 fold
fold-change vs wt [49]: 2.71 fold
fold-change to WT Fc [50]: 2.69 fold
fold-change vs wt [50]: 2.69 fold
fold-change vs wt [51]: 14.2 fold
fold-change vs wt (human FcγRIIIb (human) [52]): 1.03 fold
fold-change vs wt (human FcRn (human) [53]): 0.83 fold
fold-change to WT Fc (human C1q (human) [54]): 1.01 fold
fold-change vs wt (human C1q (human) [54]): 1.01 fold

From patent publication US20260184814A1, “BROADLY NE[…] INFLUENZA NEURAMINIDASE” (priority 2022, published 2026)
